Reference: patent publication US20220010008A1
Several values for one entry are separate records, joined by “and”; a condition that tells them apart may be missing. Equal values may be shown once.

How the values were obtained:
[1] = biological target: recombinant human IL-5 protein (human) (UniProt P05113); assay: ELISA, biotin-human IL-5 on streptavidin plate, Ab 0.5333 nM
[2] = biological target: recombinant human IL-5 protein (human) (UniProt P05113); assay: ELISA, biotin-human IL-5 on streptavidin plate, Ab 13.3333 nM
[3] = biological target: recombinant human IL-5 protein (human) (UniProt P05113); assay: FACS blocking: biotin-IL-5 bound to CHOK1 IL-5Ra/CSF2RB cells, Ab 33.3333 nM
[4] = biological target: recombinant human IL-5 protein (human) (UniProt P05113); assay: FACS blocking: biotin-IL-5 bound to CHOK1 IL-5Ra/CSF2RB cells, Ab 6.6667 nM
[5] = biological target: recombinant human IL-5 protein (human) (UniProt P05113); assay: FACS blocking: biotin-IL-5 bound to CHOK1 IL-5Ra/CSF2RB cells, Ab 0.0107 nM
[6] = biological target: recombinant human IL-5 protein (human) (UniProt P05113); assay: FACS blocking: biotin-IL-5 bound to CHOK1 IL-5Ra/CSF2RB cells, Ab 1.3333 nM
[7] = biological target: recombinant human IL-5 protein (human) (UniProt P05113); assay: SPR, human IL-5 immobilized on CM5 chip, chimeric antibody as analyte, 1:1 global fit
[8] = biological target: recombinant human IL-5 protein (human) (UniProt P05113); assay: cell-based or functional assay
[9] = biological target: recombinant human IL-5 protein (human) (UniProt P05113); assay: ELISA, biotin-human IL-5 on streptavidin plate, Ab 0.1067 nM
[10] = biological target: recombinant human IL-5 protein (human) (UniProt P05113); assay: FACS blocking: biotin-IL-5 bound to CHOK1 IL-5Ra/CSF2RB cells, Ab 0.2667 nM
[11] = biological target: recombinant human IL-5 protein (human) (UniProt P05113); assay: ELISA, biotin-human IL-5 on streptavidin plate, Ab 0.0002 nM
[12] = biological target: recombinant human IL-5 protein (human) (UniProt P05113); assay: FACS blocking: biotin-IL-5 bound to CHOK1 IL-5Ra/CSF2RB cells, Ab 0.0004 nM
[13] = biological target: recombinant human IL-5 protein (human) (UniProt P05113); assay: ELISA, biotin-human IL-5 on streptavidin plate, Ab 2.6667 nM
[14] = biological target: recombinant human IL-5 protein (human) (UniProt P05113); assay: FACS blocking: biotin-IL-5 bound to CHOK1 IL-5Ra/CSF2RB cells, Ab 0.0021 nM
[15] = biological target: recombinant human IL-5 protein (human) (UniProt P05113); assay: ELISA, biotin-human IL-5 on streptavidin plate, Ab 0.0213 nM
[16] = biological target: recombinant human IL-5 protein (human) (UniProt P05113); assay: FACS blocking: biotin-IL-5 bound to CHOK1 IL-5Ra/CSF2RB cells, Ab 0.0533 nM
[17] = biological target: recombinant human IL-5 protein (human) (UniProt P05113); assay: ELISA, biotin-human IL-5 on streptavidin plate, Ab 0.0009 nM
[18] = biological target: recombinant human IL-5 protein (human) (UniProt P05113); assay: ELISA, biotin-human IL-5 on streptavidin plate, Ab 0.0043 nM

B1: 151G3B11 mouse-human chimeric antibody (antibody, human IgG4, V domains shown)
VH: EVHLQQSGAELVKPGASVKLSCTASGFNIKDYYMHWVKQRTEQGLEWIGRIDPEDGETKYAPKFQGQATITADTSSNTANLQLSSLTSEDTAVYYCARYGNFPDYWGPGTTLTVSS
VL: QIVLTQSPALMSASPGEKVTMTCSASSSVSYMYWYQQKPRSSPKPWIYLTSKLASGVPARFSGSGSGTSYSLTISSMEAEDAATYYCQQWNSNPYTFGGGTKLEIK
OD450 nm [1]: 3.03 OD450 nm and 2.93 OD450 nm | OD450 nm [2]: 3.7 OD450 nm and 3.52 OD450 nm | Fluorescence intensity [3]: 28 MFI | Fluorescence intensity [4]: 33 MFI | Fluorescence intensity [5]: 85 MFI | Fluorescence intensity [6]: 41 MFI | Kd [7]: < 0.0637 nM | koff [7]: < 1e-05 s⁻¹ | kon [7]: 157000 M⁻¹ s⁻¹ | RLU, CTLL-2 proliferation with IL-5, Ab 0.000170667 nM [8]: 47900 RLU and 63200 RLU | RLU, CTLL-2 proliferation with IL-5, Ab 0.000853333 nM [8]: 54300 RLU and 63000 RLU | RLU, CTLL-2 proliferation with IL-5, Ab 0.004266667 nM [8]: 51200 RLU and 58000 RLU | RLU, CTLL-2 proliferation with IL-5, Ab 0.02133333 nM [8]: 41700 RLU and 43900 RLU | RLU, CTLL-2 proliferation with IL-5, Ab 0.1066667 nM [8]: 10900 RLU and 10300 RLU | RLU, CTLL-2 proliferation with IL-5, Ab 0.5333334 nM [8]: 8370 RLU and 8250 RLU | RLU, CTLL-2 proliferation with IL-5, Ab 2.666667 nM [8]: 6580 RLU and 7940 RLU | RLU, CTLL-2 proliferation with IL-5, Ab 13.33333 nM [8]: 5750 RLU and 5810 RLU | RLU, CTLL-2 proliferation with IL-5, Ab 66.66666 nM [8]: 3690 RLU and 4030 RLU | RLU, CTLL-2 proliferation with IL-5, Ab 3.41333E-05 nM [8]: 46800 RLU and 55000 RLU | RLU, TF-1 proliferation with IL-5, Ab 0.00001 nM [8]: 95500 RLU and 93900 RLU | RLU, TF-1 proliferation with IL-5, Ab 0.00003 nM [8]: 89800 RLU and 92600 RLU | RLU, TF-1 proliferation with IL-5, Ab 0.00017 nM [8]: 76600 RLU and 80400 RLU | RLU, TF-1 proliferation with IL-5, Ab 0.00085 nM [8]: 66300 RLU and 74200 RLU | RLU, TF-1 proliferation with IL-5, Ab 0.00427 nM [8]: 41500 RLU and 46000 RLU | RLU, TF-1 proliferation with IL-5, Ab 0.02133 nM [8]: 38600 RLU and 44100 RLU | RLU, TF-1 proliferation with IL-5, Ab 0.10667 nM [8]: 41600 RLU and 38800 RLU | RLU, TF-1 proliferation with IL-5, Ab 0.53333 nM [8]: 36400 RLU and 36800 RLU | RLU, TF-1 proliferation with IL-5, Ab 2.66667 nM [8]: 38400 RLU and 36800 RLU | RLU, TF-1 proliferation with IL-5, Ab 13.33333 nM [8]: 36200 RLU and 33500 RLU | OD450 nm [9]: 1.87 OD450 nm and 1.92 OD450 nm | Fluorescence intensity [10]: 68 MFI | OD450 nm [11]: 0.098 OD450 nm and 0.127 OD450 nm | Fluorescence intensity [12]: 95 MFI | OD450 nm [13]: 3.47 OD450 nm and 3.5 OD450 nm | Fluorescence intensity [14]: 90 MFI | OD450 nm [15]: 0.622 OD450 nm and 0.678 OD450 nm | Fluorescence intensity [16]: 82 MFI | OD450 nm [17]: 0.127 OD450 nm and 0.114 OD450 nm | OD450 nm [18]: 0.194 OD450 nm and 0.244 OD450 nm
